Consider 1 substance from patent publication JP2001526021A.

The assay has as its target ブラジキニン受容体 (bradykinin receptor) on SV-T2 cells. Nature of the assay: cell-based or functional assay.

Regarding ブラジキニン (bradykinin) (peptide), the PGE2合成 (PGE2 synthesis in SV-T2 cells, ELISA) is 4 倍 (fold) and the PGE2合成 (PGE2 synthesis in SV-T2 cells, Fig. 7C) was 4 倍 (fold).
